This data set concerns the molecule itself. Briefly: cryo-EM structure; 2D class averages of endophilin-only coat on lipid tubules: 11 µM protein, DOPS liposomes (0.5 g/l), GTPase buffer, 30 min room temperature.

B1: Rat endophilinA1 (natural protein, UniProt O35179 1-352, looked up)
chain: MSVAGLKKQFHKATQKVSEKVGGAEGTKLDDDFKEMERKVDVTSRAVMEIMTKTIEYLQPNPASRAKLSMINTMSKIRGQEKGPGYPQAEALLAEAMLKFGRELGDDCNFGPALGEVGEAMRELSEVKDSLDMEVKQNFIDPLQNLHDKDLREIQHHLKKLEGRRLDFDYKKKRQGKIPDEELRQALEKFDESKEIAESSMFNLLEMDIEQVSQLSALVQAQLEYHKQAVQILQQVTVRLEERIRQASSQPRREYQPKPRMSLEFATGDGTQPNGGLSHTGTPKPAGVQMDQPCCRALYDFEPENEGELGFKEGDIITLTNQIDENWYEGMLHGQSGFFPINYVEILVALPH
notes: Rat endophilinA1, wild type and full-length; source: E. coli, pGEX-6P vector, purified (glutathione Sepharose, PreScission cleavage)
Turning to B1, the binding result is recorded as “binds”.

Values taken from paper PMC5663480, “Structural inhibition of dynamin-mediated membrane fission by endophilin” (eLife, 2017).
